Reference: article PMC7205462 (eLife, 2020)
Where no end group is shown, it is not given here. fluorescein = fluorescein (from 5-iodoacetamide fluorescein) label on the Cys side chain

How the values were obtained:
TmrAB = target: T1, TmrAB (Thermus thermophilus, UniProt Q72J04+Q72J05, Q72J05:E523Q); test: biochemical
T1 construct: gene TT_C0976

[1] = target: TmrA^E523QB (Thermus thermophilus); settings: scale: translocated peptides per TmrA^EQB complex
[2] = target: Thermus thermophilus multidrug resistance transport complex TmrAB, wildtype (Thermus thermophilus)
[3] = target: TmrA^E523QB (Thermus thermophilus)
[4] = target: TmrA^E523QB (Thermus thermophilus); remark: listed apart in the source
[5] = target: TmrA^E523QB (Thermus thermophilus); test: radioligand binding; SPA time course at 20 °C; TmrA^EQB (0.2 µM) first converted to the OF state with Mg2+-ATP (5 min, 45 °C), excess ATP removed by rapid gel filtration, then R9LQK (10 µM, traced with 3H-R9L); mono-exponential fit; apparent
[6] = target: Thermus thermophilus multidrug resistance transport complex TmrAB, wildtype (Thermus thermophilus); test: radioligand binding; scintillation proximity assay (SPA), equilibrium; His-tagged TmrAB (0.2 µM) in lipid nanodiscs held on copper-chelated SPA beads; R9LQK traced with 3H-R9L; no nucleotide (IF conformation); 20 °C; background with 200 mM imidazole; one-site binding model

Work on `Nc1ncnc2c1ncn2[C@@H]1O[C@H](COP(=O)(O)OP(=O)(O)OP(=O)(O)O)[C@@H](O)[C@H]1O` [ATP] yielded an EC50 (TmrAB) of 30 µM.

RRYC(fluorescein)KSTEL (also: fluorescein attached via 5-iodoacetamide fluorescein) [C4F peptide (RRYC^fluoresceinKSTEL)] showed a translocated C4F peptides per TmrA^EQB complex; single-turnover transport into proteoliposomes (50 µM C4F, 3 mM Mg2+-ATP, 5 min at 45 °C), fluorescence read-out [1] of 0.5, a transported C4F peptides with ATP against the background control with ADP; single-liposome flow cytometry (30 µM C4F, 3 mM Mg2+-ATP or Mg2+-ADP, 5 min at 45 °C) [2] of 100 fold and a C4F peptides transported per liposome in the burst phase (0–5 min at 45 °C) of a time course; single-liposome flow cytometry (30 µM C4F, 3 mM Mg2+-ATP) (peptides per liposome) [3] of 30. For the same molecule, the C4F peptides translocated per correctly oriented TmrA^EQB upon each IF-to-OF transition; single-liposome flow cytometry (30 µM C4F, 3 mM Mg2+-ATP, two consecutive switches) (peptides per correctly oriented TmrA^EQB) [4] was 1.3.

With RRYQKSTEL [R9LQK peptide (…)] the apparent association rate kon (recovery of peptide binding along the OF-to-IF return) [5] was 0.03 min⁻¹, the half-life of the recovery of peptide binding [5] was 24 min and the Kd [6] was 70 µM.
